Test results as given in PMC6698862.
pEC50, pKd: −log10 of the molar value.

What was measured:
[1] = target: human P-cadherin, cell surface-expressed on NCI-H1650 adenocarcinoma cells (Homo sapiens (Human).) (UniProt P22223)
[2] = target: soluble human CD3 epsilon-delta heterodimer (Homo sapiens (Human).) (UniProt P07766); assay: SPR; Biacore 3000 and T-200; P-cadherin or human CD3 protein immobilised on CM5 by amine coupling (~75–300 RU); DART injected in two-fold series 100 to 6.25 nM; TBS-P+ (10 mM Tris pH 7.4, 150 mM NaCl, 2 mM CaCl2, 0.1 mg/mL BSA, 0.05% P20); global 1:1 Langmuir fit
[3] = target: cynomolgus monkey P-cadherin extracellular domain (ECD) (Macaca fascicularis); assay: as above
[4] = target: human P-cadherin-Fc (recombinant human P-cadherin ECD protein) (Homo sapiens (Human).) (UniProt P22223); assay: as above
[5] = target: cynomolgus monkey P-cadherin extracellular domain (ECD) (Macaca fascicularis); assay: KinExA; recombinant cynomolgus monkey P-cadherin; PBS pH 7.4 with MgCl2, CaCl2 and 1 mg/mL BSA; PMMA beads; 4 °C for 2 h
[6] = target: soluble human CD3 epsilon-delta heterodimer (Homo sapiens (Human).) (UniProt P07766); assay: ELISA; cadherin-Fc, P-cadherin His or CD3 epsilon-delta protein coated at 1 or 2 µg/mL; sample in 3% milk/PBS + Ca2+ and Mg2+, 1 h at room temperature
[7] = target: human P-cadherin-Fc (recombinant human P-cadherin ECD protein) (Homo sapiens (Human).) (UniProt P22223); assay: as above
[8] = target: human P-cadherin expressed on the surface of CHO cells (Homo sapiens) (UniProt P22223); assay: KinExA; human P-cadherin expressed on the surface of CHO cells; PBS pH 7.4 with MgCl2, CaCl2 and 1 mg/mL BSA; 4 °C for 2 h
[9] = target: human P-cadherin, cell surface-expressed on NCI-H1650 adenocarcinoma cells (Homo sapiens (Human).) (UniProt P22223); assay: ELISA; cell binding ELISA on a confluent monolayer of NCI-H1650 cells; DART in 3% milk/PBS + Ca2+ and Mg2+, 1 h at room temperature; HRP-labelled secondary antibody

Chain of UniProt P07766 (P07766 23-126, stated change not applied, chain 1 of 2): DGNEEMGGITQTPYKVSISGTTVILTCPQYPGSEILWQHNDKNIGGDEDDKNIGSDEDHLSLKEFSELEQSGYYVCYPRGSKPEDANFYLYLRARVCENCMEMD
Chain of UniProt P07766 (P04234 22-105, stated change not applied, chain 2 of 2, further chain): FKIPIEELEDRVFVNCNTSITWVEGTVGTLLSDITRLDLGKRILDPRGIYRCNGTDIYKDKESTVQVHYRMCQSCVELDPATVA

pKd [2]: 7.94
pKd [3]: 9.28
koff [3]: 0.000205 s⁻¹
kon [3]: 437000 M⁻¹ s⁻¹
pKd [4]: < 9.00
pKd [5]: 9.45
pEC50 [6]: 8.36
pEC50 [7]: 9.04
pKd [8]: 9.75
pEC50 [9]: 9.23
Substance: PF-06671008 (anti-P-cadherin LP-DART #153) (bispecific antibody)
redirected killing of DU145 cells by human PBMCs (LDH release, 24 h, E:T 30:1), EC50 [1]: 3.1 pM
redirected killing of HCT-116 cells by human PBMCs (LDH release, 24 h, E:T 30:1), EC50 [1]: 123 pM
